These results are taken from US20070134663.

The target in one data set is T1, MSN-V5-His, P26038.
T1 chain: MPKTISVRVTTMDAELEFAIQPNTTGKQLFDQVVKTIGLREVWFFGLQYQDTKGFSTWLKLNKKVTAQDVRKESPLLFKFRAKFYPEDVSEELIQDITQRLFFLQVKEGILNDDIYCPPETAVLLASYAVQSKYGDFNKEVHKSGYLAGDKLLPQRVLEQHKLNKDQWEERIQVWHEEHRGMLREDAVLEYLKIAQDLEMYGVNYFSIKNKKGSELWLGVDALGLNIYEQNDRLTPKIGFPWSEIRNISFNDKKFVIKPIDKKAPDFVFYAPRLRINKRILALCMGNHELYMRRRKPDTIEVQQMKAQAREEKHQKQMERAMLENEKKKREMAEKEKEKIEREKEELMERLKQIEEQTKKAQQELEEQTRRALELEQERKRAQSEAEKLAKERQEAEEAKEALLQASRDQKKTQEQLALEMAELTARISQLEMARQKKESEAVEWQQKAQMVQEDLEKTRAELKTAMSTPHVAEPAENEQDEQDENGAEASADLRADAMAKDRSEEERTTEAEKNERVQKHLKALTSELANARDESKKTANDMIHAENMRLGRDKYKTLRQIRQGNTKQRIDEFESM

Data set [1] has as its target FLAG-Luc [luciferase: P08659].

FLAG-KPNA1, P52294, sequence (P52294 whole entry): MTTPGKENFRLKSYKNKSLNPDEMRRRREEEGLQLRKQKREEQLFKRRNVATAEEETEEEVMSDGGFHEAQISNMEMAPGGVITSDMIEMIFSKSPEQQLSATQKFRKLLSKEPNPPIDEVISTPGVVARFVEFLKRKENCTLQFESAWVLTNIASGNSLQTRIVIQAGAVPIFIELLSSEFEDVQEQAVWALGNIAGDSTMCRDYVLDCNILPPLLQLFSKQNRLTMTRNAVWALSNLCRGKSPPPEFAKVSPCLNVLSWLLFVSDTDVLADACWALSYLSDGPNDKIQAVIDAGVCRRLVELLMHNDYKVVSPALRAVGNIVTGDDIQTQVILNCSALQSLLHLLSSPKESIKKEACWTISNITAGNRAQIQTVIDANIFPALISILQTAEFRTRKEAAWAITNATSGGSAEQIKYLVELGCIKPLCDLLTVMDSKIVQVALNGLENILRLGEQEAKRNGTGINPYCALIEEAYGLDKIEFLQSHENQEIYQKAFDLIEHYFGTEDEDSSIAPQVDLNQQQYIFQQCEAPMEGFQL
FLAG-Luc [luciferase: P08659], sequence (P08659 whole entry): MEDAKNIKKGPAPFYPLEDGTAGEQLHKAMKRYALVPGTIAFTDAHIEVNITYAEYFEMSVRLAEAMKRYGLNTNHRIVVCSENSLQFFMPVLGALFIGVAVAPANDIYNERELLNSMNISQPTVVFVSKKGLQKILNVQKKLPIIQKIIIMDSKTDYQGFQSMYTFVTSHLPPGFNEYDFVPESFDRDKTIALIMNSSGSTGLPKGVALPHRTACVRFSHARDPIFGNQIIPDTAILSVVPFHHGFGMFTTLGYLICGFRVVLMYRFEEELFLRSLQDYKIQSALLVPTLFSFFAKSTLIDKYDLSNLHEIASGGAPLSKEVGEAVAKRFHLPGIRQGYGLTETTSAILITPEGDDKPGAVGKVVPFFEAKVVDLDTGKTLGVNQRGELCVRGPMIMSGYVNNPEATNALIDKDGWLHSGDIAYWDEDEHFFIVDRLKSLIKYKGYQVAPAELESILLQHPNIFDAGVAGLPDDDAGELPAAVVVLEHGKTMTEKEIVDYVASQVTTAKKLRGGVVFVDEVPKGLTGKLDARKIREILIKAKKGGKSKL

B1: purified PKC theta (Upstate) (protein)
chain: MSPFLRIGLSNFDCGSCQSCQGEAVNPYCAVLVKEYVESENGQMYIQKKPTMYPPWDSTFDAHINKGRVMQIIVKGKNVDLISETTVELYSLAERCRKNNGKTEIWLELKPQGRMLMNARYFLEMSDTKDMNEFETEGFFALHQRRGAIKQAKVHHVKCHEFTATFFPQPTFCSVCHEFVWGLNKQGYQCRQCNAAIHKKCIDKVIAKCTGSAINSRETMFHKERFKIDMPHRFKVYNYKSPTFCEHCGTLLWGLARQGLKCDACGMNVHHRCQTKVANLCGINQKLMAEALAMIESTQQARCLRDTEQIFREGPVEIGLPCSIKNEARPPCLPTPGKREPQGISWESPLDEVDKMCHLPEPELNKERPSLQIKLKIEDFILHKMLGKGSFGKVFLAEFKKTNQFFAIKALKKDVVLMDDDVECTMVEKRVLSLAWEHPFLTHMFCTFQTKENLFFVMEYLNGGDLMYHIQSCHKFDLSRATFYAAEIILGLQFLHSKGIVYRDLKLDNILLDKDGHIKIADFGMCKENMLGDAKTNTFCGTPDYIAPEILLGQKYNHSVDWWSFGVLLYEMLIGQSPFHGQDEEELFHSIRMDNPFYPRWLEKEAKDLLVKLFVREPEKRLGVRGDIRQHPLFREINWEELERKEIDPPFRPKVKSPFDCSNFDKEFLNEKPRLSFADRALINSMDQNMFRNFSFMNPGMERLIS
B1: the “phosphorylation of substrate, in vitro kinase assay with gamma-32P-ATP, SDS-PAGE and autoradiography” value is “the positive control MSN contains phosphorylated band (molecular weight of about 71 kDa)” in the data set with MSN-V5-His, P26038; “the negative control Luc does not contain phosphorylated band (molecular weight of about 62 kDa)” in data set [1]; “phosphorylated band of KPNA1 (molecular weight of about 63 kDa) was observed” in the data set with FLAG-KPNA1, P52294.
